Data reported in patent publication US6955900B1, “Methods for producing polypeptide binding sites, monoclonal antibodies and compositions thereof” (The Scripps Research Institute, priority 1993, dated 2005).
Like-named read-outs stand apart in the source and are kept apart here. Bridge positions count the residues as written; N and C are the ends. Ends that are not written are not given here.

Tests used:
αvβ3 [1] = biological target: T1, αvβ3 (Homo sapiens, UniProt P05106+P06756); assay: purified ligand-receptor binding assay, inhibition of 125I-vitronectin binding to αvβ3; conditions: for blocking of vitronectin (ligand) binding to αvβ3: result in words
T1 construct: human placentas were obtained, cut into small pieces and extracted; from tissue
T1 sequence (P06756 31-889 limits assumed): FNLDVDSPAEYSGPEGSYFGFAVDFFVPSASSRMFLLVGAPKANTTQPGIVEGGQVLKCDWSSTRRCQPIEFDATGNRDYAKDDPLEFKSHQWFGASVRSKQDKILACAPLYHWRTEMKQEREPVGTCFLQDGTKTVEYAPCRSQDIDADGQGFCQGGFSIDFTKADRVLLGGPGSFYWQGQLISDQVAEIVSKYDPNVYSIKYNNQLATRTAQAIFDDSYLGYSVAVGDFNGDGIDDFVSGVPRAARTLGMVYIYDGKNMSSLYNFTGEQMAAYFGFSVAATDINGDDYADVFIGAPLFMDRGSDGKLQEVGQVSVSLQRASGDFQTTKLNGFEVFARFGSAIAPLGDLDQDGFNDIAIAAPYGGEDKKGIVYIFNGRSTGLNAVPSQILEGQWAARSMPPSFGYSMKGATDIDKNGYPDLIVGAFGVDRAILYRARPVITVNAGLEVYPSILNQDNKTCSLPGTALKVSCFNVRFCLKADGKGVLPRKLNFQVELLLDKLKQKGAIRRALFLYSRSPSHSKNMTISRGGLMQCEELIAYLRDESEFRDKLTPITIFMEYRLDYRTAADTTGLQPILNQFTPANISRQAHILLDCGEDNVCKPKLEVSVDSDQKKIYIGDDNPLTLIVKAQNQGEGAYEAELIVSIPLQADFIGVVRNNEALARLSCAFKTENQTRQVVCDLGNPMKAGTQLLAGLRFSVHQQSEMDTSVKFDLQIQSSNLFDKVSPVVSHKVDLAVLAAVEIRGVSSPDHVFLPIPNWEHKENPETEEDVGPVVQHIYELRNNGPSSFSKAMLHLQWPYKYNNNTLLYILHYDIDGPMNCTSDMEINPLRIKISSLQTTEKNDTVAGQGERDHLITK
T1 sequence (P06756 891-1048 partner limits assumed): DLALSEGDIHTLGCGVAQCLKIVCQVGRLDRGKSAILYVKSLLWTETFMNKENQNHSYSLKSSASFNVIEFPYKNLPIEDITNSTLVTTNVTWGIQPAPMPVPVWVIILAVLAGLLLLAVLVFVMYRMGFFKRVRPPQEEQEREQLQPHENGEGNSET
T1 sequence (P05106 27-788): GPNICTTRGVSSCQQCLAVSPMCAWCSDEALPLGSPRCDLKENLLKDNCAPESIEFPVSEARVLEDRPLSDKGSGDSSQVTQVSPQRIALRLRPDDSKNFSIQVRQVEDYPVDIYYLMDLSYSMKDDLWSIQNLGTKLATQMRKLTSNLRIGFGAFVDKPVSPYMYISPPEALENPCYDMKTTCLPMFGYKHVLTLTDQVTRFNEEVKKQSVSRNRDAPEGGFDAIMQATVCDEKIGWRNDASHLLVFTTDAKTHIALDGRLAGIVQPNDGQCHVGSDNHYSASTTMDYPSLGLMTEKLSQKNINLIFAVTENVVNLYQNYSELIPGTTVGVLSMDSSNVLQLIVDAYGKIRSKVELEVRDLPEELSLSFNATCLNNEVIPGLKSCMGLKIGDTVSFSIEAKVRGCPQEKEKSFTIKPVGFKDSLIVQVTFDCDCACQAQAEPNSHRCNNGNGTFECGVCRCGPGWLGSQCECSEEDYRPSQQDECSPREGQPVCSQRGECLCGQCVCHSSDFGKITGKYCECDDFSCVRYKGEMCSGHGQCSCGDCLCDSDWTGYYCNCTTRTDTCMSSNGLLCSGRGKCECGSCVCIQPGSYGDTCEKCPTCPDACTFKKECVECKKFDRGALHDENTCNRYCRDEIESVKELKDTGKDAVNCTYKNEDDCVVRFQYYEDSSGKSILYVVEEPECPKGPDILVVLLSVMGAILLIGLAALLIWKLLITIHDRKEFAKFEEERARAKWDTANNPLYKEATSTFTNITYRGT
Experimental: (§1) The method for these binding studies has been described by Barbas et al., Proc. Natl. Acad. Sci., USA, 90:10003-10007 (1993) and Smith et al., J. Biol. Chem., 265:11008-11013 (1990), the disclosures of which are hereby incorporated by reference.
(§2) Briefly, selected purified integrins were separately immobilized in Titertek microtiter wells at a coating concentration of 50 ng per well. After incubation for 18 hr at 4° C., non-specific binding sites on the plate were blocked with 10 mg/ml of bovine serum albumin in Tris-buffered saline. For inhibition studies, a range of antibody was tested for the ability to block the binding of ^125I-vitronectin to αvβ3 and ^125I-fibrinogen to αIIbβ3. The choice to use two different ligands in comparing the inhibitory activity of antibodies was a compromise based on a complicated series of circumstances. […] In contrast, Ca^2+ is essential for the rapid binding of fibrinogen to αIIbβ3. […] Therefore, the optimal ligand was selected for each integrin. This corresponds to vitronectin for αvβ3 and fibrinogen for αIIbβ3. Radiolabeled ligands were used at concentrations of 1 nM and binding was challenged with unlabeled antibody.
(§3) Following a three hour incubation free ligand was removed by washing and bound ligand was detected by gamma counting. The data from this analysis were highly reproducible with the error between data points typically below 11%. Data are expressed as the average of triplicate data points. All experiments were repeated at least four times.

αIIbβ3 [2] = biological target: T2, αIIbβ3 (Homo sapiens, UniProt P05106+P08514); assay: purified ligand-receptor binding assay, inhibition of 125I-fibrinogen binding to αIIbβ3; parameters: from tissue; the procedure itself is in U.S. Pat. No. 5,114,842; conditions: for blocking of fibrinogen (ligand) binding to gpIIb/IIIa (αIIbβ3): result in words
Experimental: as §1, §2, §3

αvβ5 [3] = biological target: T3, αvβ5 (Homo sapiens, UniProt P06756+P18084); assay: purified ligand-receptor binding assay, inhibition of 125I-vitronectin binding to αvβ5; conditions: result in words
T3 construct: human placentas were obtained, cut into small pieces and extracted; from tissue
T3 sequence (P06756 31-889 limits assumed): as the sequence (P06756 31-889 limits assumed) above
T3 sequence (P06756 891-1048 partner limits assumed): as the sequence (P06756 891-1048 partner limits assumed) above
T3 sequence (P18084 24-799): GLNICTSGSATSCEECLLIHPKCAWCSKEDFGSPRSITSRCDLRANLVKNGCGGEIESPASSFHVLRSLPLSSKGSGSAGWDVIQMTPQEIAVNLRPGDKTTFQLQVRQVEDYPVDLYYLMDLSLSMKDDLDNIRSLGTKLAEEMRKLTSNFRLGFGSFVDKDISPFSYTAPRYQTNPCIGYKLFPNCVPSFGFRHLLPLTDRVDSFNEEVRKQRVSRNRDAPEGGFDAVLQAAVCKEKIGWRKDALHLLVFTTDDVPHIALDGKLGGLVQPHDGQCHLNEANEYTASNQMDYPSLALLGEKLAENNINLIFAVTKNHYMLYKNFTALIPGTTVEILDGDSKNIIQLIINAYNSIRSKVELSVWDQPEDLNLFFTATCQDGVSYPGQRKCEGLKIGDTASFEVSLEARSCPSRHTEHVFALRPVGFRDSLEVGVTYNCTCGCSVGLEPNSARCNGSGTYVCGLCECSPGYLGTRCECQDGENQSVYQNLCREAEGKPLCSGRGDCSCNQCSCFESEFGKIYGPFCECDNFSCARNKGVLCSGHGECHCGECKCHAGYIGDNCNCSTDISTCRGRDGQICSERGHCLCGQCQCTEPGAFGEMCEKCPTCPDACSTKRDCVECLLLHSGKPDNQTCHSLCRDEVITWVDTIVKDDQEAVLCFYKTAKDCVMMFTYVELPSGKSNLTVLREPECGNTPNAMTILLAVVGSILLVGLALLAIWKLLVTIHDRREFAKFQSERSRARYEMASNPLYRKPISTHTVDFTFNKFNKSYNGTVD
Experimental: To determine if the CDR was an appropriate vehicle for displaying and identifying inhibitory peptide motifs, the ability of synthetic peptides derived from the sequence of Fab 9 to block ligand binding to αvβ3, αvβ5 and αIIbβ3 was measured. One peptide synthesized as described below for use in this assay contained a RGD motif positioned on the apex of the CDR3 loop but lacked the remaining flanking regions of the CDR3 and rest of the heavy chain. The sequence of the peptide is listed in SEQ ID NO 12. A peptide having the same sequence but flanked by glycine residues to prevent cyclization was also prepared and has the amino acid residue sequence in SEQ ID NO 68. A longer peptide, having the amino acid residue sequence in SEQ ID NO 4 containing all of the amino acids in SEQ ID NO 12 along with flanking amino acid residues, was also prepared. These assays were performed in order to assess the ability of this particular peptide to inhibit the binding of a high affinity ligand to a receptor, namely the binding of vitronectin to αv/β3 or αv/β5 and fibrinogen to gpIIb/IIIa.
The synthetic peptides from Fab 9 were tested for the ability to antagonize αvβ3 and αIIbβ3 and αvβ5 in purified ligand-receptor binding assays performed as described in Example 5b. […]

αvβ5 [4] = biological target: T3, αvβ5; assay: ELISA on αv/β5-coated wells; assay type: binding; conditions: result in words, compared to BSA background
Experimental: (§4) Preliminary ELISA assays were performed to first characterize the binding specificity of the panned phage monoclonal antibodies prepared above toward related integrins. For ELISA, 1 ug/well of the purified VNRs prepared in Example 3A was separately admixed to individual wells of a microtiter plate and maintained at 4 C overnight to allow the protein solution to adhere to the walls of the well. After the maintenance period, the wells were washed once with PBS and thereafter maintained with a solution of 3% BSA to block nonspecific sites on the wells. The plates were maintained at 37 C for 1 hour after which time the plates were inverted and shaked to remove the BSA solution. Soluble Fab heterodimers expressing the synthetic binding site proteins-prepared in Example 3B were then admixed separately to each well and maintained at 37 C for 1 hour to form a immunoreaction products. Following the maintenance period, the wells were washed 10 times with PBS to remove unbound soluble antibody and then maintained with a secondary goat anti-human FAB conjugated to alkaline phosphatase diluted in PBS containing 1% BSA. The wells were maintained at 37 C for 1 hour after which the wells were washed 10 times with PBS followed by development with p-nitrophenyl phosphate.

αvβ3 [5] = biological target: T1, αvβ3; assay: ELISA on αv/β3-coated wells; assay type: binding; conditions: result in words, compared to BSA background
Experimental: as §4

platelets = assay: platelet aggregation assay; assay type: cell-based, human
Experimental: Platelet aggregation assays were performed as described in U.S. Pat. No. 5,114,842. […] When the concentration of the RGDC2-binding site Fab was decreased by half, the amount of platelet aggregation increased similarly and thus the amount of light transmitted increased. […] All of the initial selection and characterization of the semi-synthetic Fab antibodies of this invention relied largely upon the use of purified integrins. Since the MTF-antibodies blocked the function of αIIbβ3 and have potential therapeutic use in the prevention of thrombosis, the ability of recombinant Fabs to block platelet aggregation was measured as described in Example 4. Washed platelets (1×10^8) were placed in Tyrode's buffer containing 2 mM Ca^2+ and 100 ug/ml of fibrinogen and aggregation was stimulated by addition of 20 uM ADP. Aggregation was measured as light transmission through the platelet suspension using a Scienceo aggregometer.

gpIIb/IIIa [6] = biological target: T4, gpIIb/IIIa (Homo sapiens, UniProt P05106+P08514); assay: ELISA on gpIIb/IIIa-coated surfaces; assay type: binding; conditions: result in words
T4 construct: from tissue; the procedure itself is in U.S. Pat. No. 5,114,842

gpIIb/IIIa [7] = biological target: T4, gpIIb/IIIa; assay: gpIIb/IIIa sandwich ELISA on fibrinogen-coated plates; assay type: binding
Experimental: A gpIIb/IIIa sandwich ELISA assay was performed on 10 ug/ml (100 ul) of fibrinogen-coated plates. After blocking the plate as described above, the RGD-expressing, Fab, Mab 19, was admixed with purified gpIIb/IIIa receptor. After allowing the RGD-expressing Fab and receptor admixture to immunoreact with the fibrinogen, the wells were washed and the amount of bound gpIIb/IIIa was determined using an anti-IIIa antibody.

αIIbβ3 [8] = biological target: T2, αIIbβ3; conditions: solid-phase radioligand binding assays, recently reported; cited from earlier work
αIIbβ3 [9] = biological target: T2, αIIbβ3; assay: surface plasmon resonance (BIAcore), Fab binding to immobilized αIIbβ3; parameters: from tissue; the procedure itself is in U.S. Pat. No. 5,114,842; conditions: using SPR
Experimental: A comparison of absolute antibody affinities was then performed with surface plasmon resonance, which is a highly accurate means of assessing ligand affinities in real time. See, Altshuh et al., Biochem., 31:6298-6304 (1992); Chaiken et al., Anal. Biochem., 201:197-210 (1992); Eddowes, Biosensors, 3:1-15 (1987); Fagerstam et al., J. Chromatoar., 597:397-410 (1992); Johnsson et al., Anal. Biochem., 198:268-277 (1991); Karlsson et al., J. Immunol. Methods, 145:229-240 (1991); and VanCott et al., J. Immunol. Methods, 146:163-176 (1992), the disclosures of which are hereby incorporated by reference. SPR is a phenomena that occurs when incoming photons interact with electrons in a biosensor chip. […]
The association and dissociation rate constants (k1 and k−1) for semi-synthetic antibodies were obtained from BIAcore measurements as follows. […] At the end of the association phase the flow was changed to buffer without ligand and the change in response unit (RU) was measured as a function of time. […]
To obtain the association rate constant k1, an antibody was passed through the sensor chip containing unoccupied integrin and the response unit as a result of binding is again measured as a function of time. The association rate constant, k1, is calculated as shown in equation 2. k1=[((dRU/dt)/RU)−k−1]/L Equation 2 L is the concentration of ligand. […]

[10] = listed as Fab 9-derived peptide in SEQ ID NO 68

## CSFGRGDIRNC (CSFGRGDIRNC-NH2; disulfide 1-11 (inferred); not fully specified) [circularized Fab 9-derived peptide]
αvβ3 [1]; listed as VnRB3-5-derived peptide
  blocking of vitronectin (ligand) binding to αvβ3: inhibits

## GSFGRGDIRNG [Lin-9]
αIIbβ3 [2]
  peptide concentration reaching maximal inhibition of binding to gpIIb/IIIa: 10^−5 M
  blocking of fibrinogen (ligand) binding to gpIIb/IIIa (αIIbβ3): inhibited
αIIbβ3 [2]; [10]
  blocking of fibrinogen (ligand) binding to gpIIb/IIIa (αIIbβ3): completely inhibited
αvβ3 [1]
  peptide concentration reaching maximal inhibition of binding to αv/β3: 10^−5 M
  blocking of vitronectin (ligand) binding to αvβ3: inhibited
αvβ3 [1]; [10]
  blocking of vitronectin (ligand) binding to αvβ3: completely inhibited
αvβ5 [3]
  blocking of vitronectin binding to αvβ5: did not antagonize
αvβ5 [3]; [10]
  blocking of vitronectin binding to αvβ5: No inhibition

## Mab 8: Fab-displayed RGDC2 binding site VGCPIPRGDWRECYYMDV (SEQ ID NO 8) (Fab-displayed binding site)
αvβ5 [4]
  binding to αv/β5 (ELISA, immunoreaction): not to αv/β5
αvβ3 [5]
  binding to αv/β3 (ELISA, immunoreaction): bound specifically

## Mab 19: Fab-displayed RGDC2 binding site VGCGRLRGDDPWCYYMDV (SEQ ID NO 3) (Fab-displayed binding site)
αvβ5 [4]
  binding to αv/β5 (ELISA, immunoreaction): not cross-react
αvβ3 [5]
  binding to αv/β3 (ELISA, immunoreaction): not cross-react
platelets; 6.6 uM purified soluble Fab, light transmission
  inhibition of platelet aggregation: inhibited the aggregation of platelets in a time-dependent manner
platelets; simultaneously performed assays
  inhibition of platelet aggregation compared with murine Fab LIBS-1: equally effective
gpIIb/IIIa [6]
  binding to gpIIb/IIIa (ELISA, immunoreaction): specific for gpIIb/IIIa
gpIIb/IIIa [7]
  Fab concentration of maximal inhibition of gpIIb/IIIa binding to fibrinogen: 5 µM
gpIIb/IIIa [7]; result in words
  blocking of gpIIb/IIIa binding to fibrinogen: blocked the binding of gpIIb/IIIa to fibrinogen in a dose-dependent manner

## fibrinogen: natural high affinity ligand of αIIbβ3
αIIbβ3 [8]
  association rate constant for binding to αIIbβ3: 850000 M⁻¹ s⁻¹
αIIbβ3 [9]
  association rate constant for binding to αIIbβ3: 600000 M⁻¹ s⁻¹

## peptides derived from HCDR3 of MTF-32: circular CSFGRTDQRNC (SEQ ID NO 71), linear GCSFGRTDQRNCY (SEQ ID NO 72) [peptide 32]
αIIbβ3 [2]
  blocking of fibrinogen (ligand) binding to gpIIb/IIIa (αIIbβ3): blocked
αvβ3 [1]
  blocking of vitronectin (ligand) binding to αvβ3: did not interfere

## peptides derived from HCDR3 of MTF-40: circular CSFGRNDSRNC (SEQ ID NO 69), linear GCSFGRNDSRNCY (SEQ ID NO 70) [peptide 40]
αIIbβ3 [2]
  blocking of fibrinogen (ligand) binding to gpIIb/IIIa (αIIbβ3): blocked
αvβ3 [1]
  blocking of vitronectin (ligand) binding to αvβ3: did not interfere
